Data reported in article PMC9738063, “Ethylene Response Factor MaERF012 Modulates Fruit Ripening by Regulating Chlorophyll Degradation and Softening in Banana”.

B1: MaXYL23-like probe (dsDNA)
DNA 1: GGCAATCAGTCGGAGGAGGAGCCGCCCGATTTGGTGCACTATCATC
DNA 2: GATGATAGTGCACCAAATCGGGCGGCTCCTCCTCCGACTGATTGCC
B2: MaGWD1 probe (dsDNA)
DNA 1: CTAATCACATGATGGTGTGTGGCCGCCATCATTCTCTCCCAAGCAACC
DNA 2: GGTTGCTTGGGAGAGAATGATGGCGGCCACACACCATCATGTGATTAG
B3: MaPL8 probe (dsDNA)
DNA 1: ATATCTGTGTGCTCTTGCGAGGCGGCTGGACTTTCCTGCACGCAAT
DNA 2: ATTGCGTGCAGGAAAGTCCAGCCGCCTCGCAAGAGCACACAGATAT
B4: MaAMY3 probe (dsDNA)
DNA 1: CGGACTCACGCCACACCACAGCCGCCCCTGACGCAATTAGCGTCGA
DNA 2: TCGACGCTAATTGCGTCAGGGGCGGCTGTGGTGTGGCGTGAGTCCG
B5: MaSGR1 probe (dsDNA)
DNA 1: ATCATATTTCTGAATTAAGGTACTGGCGGCACATCGATATGGTATC
DNA 2: GATACCATATCGATGTGCCGCCAGTACCTTAATTCAGAAATATGAT
B6: MaEXP-A8 probe (dsDNA)
DNA 1: GTTGGTTCATAAGGTGCTCCGGCGGCATGTGCTGCAGACACGAAGT
DNA 2: ACTTCGTGTCTGCAGCACATGCCGCCGGAGCACCTTATGAACCAAC

molecular target: GST-MaERF012 (Musa acuminata 'Fenjiao' banana, UniProt A0A804KA32 1-188); experiment: EMSA; LightShift Chemiluminescent EMSA Kit; buffer, salt, pH and temperature not stated; details: protein: recombinant; tags: N-terminal GST (pGEX-4T-1); label: biotin 3' end; blunt
Sequence (A0A804KA32 entry or part of it): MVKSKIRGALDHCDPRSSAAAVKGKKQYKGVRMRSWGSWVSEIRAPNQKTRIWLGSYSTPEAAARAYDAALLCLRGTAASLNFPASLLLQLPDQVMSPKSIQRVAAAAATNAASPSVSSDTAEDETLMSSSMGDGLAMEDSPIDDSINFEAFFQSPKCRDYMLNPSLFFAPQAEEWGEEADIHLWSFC

Binding result, binds:
B1
B2
B3
B4
B5
B6
